{"source": "paper doi:10.1101/2025.11.05.686826", "target": "Prometheoarchaeum syntrophicum rubisco (Prometheoarchaeum syntrophicum)", "test": "SEC-SAXS", "data": [{"substance": "Prometheoarchaeum syntrophicum rubisco (enzyme)", "values": [{"measurement": "stoichiometry N", "result": 2}]}]}
